T1: Serum-derived human C1s (human, UniProt P09871 16-688)
T1 construct: The analyte was C1s purified from serum; also called hC1s
T1 sequence: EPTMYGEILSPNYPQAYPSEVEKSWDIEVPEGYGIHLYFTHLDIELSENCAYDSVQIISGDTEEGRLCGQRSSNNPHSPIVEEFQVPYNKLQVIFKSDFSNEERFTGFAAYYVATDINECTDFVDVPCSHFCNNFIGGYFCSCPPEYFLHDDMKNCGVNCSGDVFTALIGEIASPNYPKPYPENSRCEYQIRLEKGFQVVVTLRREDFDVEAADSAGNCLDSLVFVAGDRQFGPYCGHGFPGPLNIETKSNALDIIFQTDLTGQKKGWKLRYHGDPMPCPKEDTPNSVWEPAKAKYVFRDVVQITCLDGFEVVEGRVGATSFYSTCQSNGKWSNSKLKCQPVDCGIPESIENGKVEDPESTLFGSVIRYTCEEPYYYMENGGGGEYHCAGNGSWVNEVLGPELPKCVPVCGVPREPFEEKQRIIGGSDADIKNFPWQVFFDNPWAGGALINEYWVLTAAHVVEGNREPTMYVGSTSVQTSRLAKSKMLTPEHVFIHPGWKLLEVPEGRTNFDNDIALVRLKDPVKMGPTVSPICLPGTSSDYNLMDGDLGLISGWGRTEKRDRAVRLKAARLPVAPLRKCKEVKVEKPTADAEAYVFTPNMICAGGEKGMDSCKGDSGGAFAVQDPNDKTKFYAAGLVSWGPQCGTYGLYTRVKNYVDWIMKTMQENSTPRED


What was measured:
[1] = molecular target: T1, Serum-derived human C1s; assay: SPR Biacore T200, 37 C, ratio of KD pH 5.8 / pH 7.4, 1.2 mM CaCl2
Experimental: The binding affinity of all histidine-substituted variants at pH 7.4 and pH 5.8 were determined at 37 degrees C. using Biacore T200 instrument (GE Healthcare). Recombinant Protein A/G (Pierce) was immobilized onto all flow cells of a CM4 sensor chip using amine coupling kit (GE Healthcare). Antibodies and analytes were prepared in 7(+) buffer (20 mM ACES, 150 mM NaCl, 1.2 mM CaCl2, 0.05% Tween 20, 0.005% NaN3, pH 7.4) or 5(+) buffer (20 mM ACES, 150 mM NaCl, 1.2 mM CaCl2), 0.05% Tween 20, 0.005% NaN3, pH 5.8). Each antibody was captured onto the sensor surface by protein A/G. Antibody capture levels were aimed at 200 resonance unit (RU). […] Sensor surface was regenerated each cycle with 10 mM Glycine-HCl pH 1.5. […] An additional dissociation phase at pH 5.8 was integrated immediately after the dissociation phase at pH 7.4. This dissociation rate in 5(+) buffer was determined by processing and fitting data using Scrubber 2.0 (BioLogic Software) curve fitting software. […]

[2] = molecular target: T1, Serum-derived human C1s; assay: SPR Biacore T200, 37 C, antibody captured on protein A/G, pH 5.8, 1.2 mM CaCl2
Experimental: (§1) The binding affinity of all histidine-substituted variants at pH 7.4 and pH 5.8 were determined at 37 degrees C. using Biacore T200 instrument (GE Healthcare). Recombinant Protein A/G (Pierce) was immobilized onto all flow cells of a CM4 sensor chip using amine coupling kit (GE Healthcare). Antibodies and analytes were prepared in 7(+) buffer (20 mM ACES, 150 mM NaCl, 1.2 mM CaCl2, 0.05% Tween 20, 0.005% NaN3, pH 7.4) or 5(+) buffer (20 mM ACES, 150 mM NaCl, 1.2 mM CaCl2), 0.05% Tween 20, 0.005% NaN3, pH 5.8). Each antibody was captured onto the sensor surface by protein A/G. Antibody capture levels were aimed at 200 resonance unit (RU). […] Sensor surface was regenerated each cycle with 10 mM Glycine-HCl pH 1.5. […] An additional dissociation phase at pH 5.8 was integrated immediately after the dissociation phase at pH 7.4. This dissociation rate in 5(+) buffer was determined by processing and fitting data using Scrubber 2.0 (BioLogic Software) curve fitting software.

[3] = molecular target: T1, Serum-derived human C1s; assay: SPR Biacore T200, 37 C, ratio of dissociation rates pH 5.8 / pH 7.4, 1.2 mM CaCl2
Experimental: as §1

[4] = molecular target: T1, Serum-derived human C1s; assay: SPR Biacore T200, 37 C, antibody captured on protein A/G, pH 7.4, 1.2 mM CaCl2
Experimental: as §1

KD (5.8+)/KD (7.4+) [1] | koff [2] [s⁻¹] | kon [2] [M⁻¹ s⁻¹] | koff (5.8+ of 775+)/koff (7.4+) [3] | kon [4] [M⁻¹ s⁻¹] | Kd [2] [nM] | Kd [4] [nM] | Binder
74.9 | 0.0194 | 233000 | 54.2 | 469000 |  |  | IPN92H0288/IPN93L0211-SG136 (antibody, human IgG1, kappa) heavy: EVMLVESGGGLVKPGGSLRLSCAASGFTFSNYAMSWVRQAPGKGLEWVATISSGGSHTYELDSVDGRFTISRDNSKDTLYLQMNSLRAEDTALYYCARLFTKHAMDYWGQGTLVTVSSASTKGPSVFPLAPSSKSTSGGTAALGCLVKDYFPEPVTVSWNSGALTSGVHTFPAVLQSSGLYSLSSVVTVPSSSLGTQTYICNVNHKPSNTKVDKKVEPKSCDKTHTCPPCPAPELRRGPSVFLFPPKPKDTLMISRTPEVTCVVVDVSHEDPEVKFNWYVDGVEVHNAKTKPREEQYNSTYRVVSVLTVLHQDWLNGKEYKCKVSNKGLPSSIEKTISKAKGQPREPQVYTLPPSREEMTKNQVSLTCLVKGFYPSDIAVEWESNGQPENNYKTTPPVLDSDGSFFLYSKLTVDKSRWQQGNVFSCSVMHEALHNHYTQKSLSLSP light: QIVLTQSPATLSLSPGERATLSCTASSEVSESYLHWYQQKPGKAPKLWIYSTSNLASGVPSRFSGSGSGTDYTLTISSLQPEDFATYYCHQYYRLHPITFGQGTKLEIKRTVAAPSVFIFPPSDEQLKSGTASVVCLLNNFYPREAKVQWKVDNALQSGNSQESVTEQDSKDCTYSLSSTLTLSKADYEKHKVYACEVTHQGLSSPVTKSFNRGEC
65.6 | 0.0127 | 315000 | 38.8 | 666000 |  |  | IPN92H0288/IPN93L0058-SG136 (antibody, human IgG1, kappa) heavy: EVMLVESGGGLVKPGGSLRLSCAASGFTFSNYAMSWVRQAPGKGLEWVATISSGGSHTYELDSVDGRFTISRDNSKDTLYLQMNSLRAEDTALYYCARLFTKHAMDYWGQGTLVTVSSASTKGPSVFPLAPSSKSTSGGTAALGCLVKDYFPEPVTVSWNSGALTSGVHTFPAVLQSSGLYSLSSVVTVPSSSLGTQTYICNVNHKPSNTKVDKKVEPKSCDKTHTCPPCPAPELRRGPSVFLFPPKPKDTLMISRTPEVTCVVVDVSHEDPEVKFNWYVDGVEVHNAKTKPREEQYNSTYRVVSVLTVLHQDWLNGKEYKCKVSNKGLPSSIEKTISKAKGQPREPQVYTLPPSREEMTKNQVSLTCLVKGFYPSDIAVEWESNGQPENNYKTTPPVLDSDGSFFLYSKLTVDKSRWQQGNVFSCSVMHEALHNHYTQKSLSLSP light: QIVLTQSPATLSLSPGERATLSCTASSEVSSSYLHWYQQKPGKAPKLWIYSTSNLASGVPSRFSGSGSGTDYTLTISSLQPEDFATYYCHQYYRLHPITFGQGTKLEIKRTVAAPSVFIFPPSDEQLKSGTASVVCLLNNFYPREAKVQWKVDNALQSGNSQESVTEQDSKDCTYSLSSTLTLSKADYEKHKVYACEVTHQGLSSPVTKSFNRGEC

Continued, binder first:

Binder | KD (5.8+)/KD (7.4+) [1] | koff [2] [s⁻¹] | kon [2] [M⁻¹ s⁻¹] | koff (5.8+ of 775+)/koff (7.4+) [3] | kon [4] [M⁻¹ s⁻¹] | Kd [2] [nM] | Kd [4] [nM]
IPN92H0033/IPN93L0024-SG136 (antibody, human IgG1, kappa) heavy: EVMLVESGGGLVKPGGSLRLSCAASGFTFSNYAMSWVRQAPGKGLEWVATISSGGSHTYYLDSVKGRFTISRDNSKDTLYLQMNSLRAEDTALYYCARLFTGHAMDYWGQGTLVTVSSASTKGPSVFPLAPSSKSTSGGTAALGCLVKDYFPEPVTVSWNSGALTSGVHTFPAVLQSSGLYSLSSVVTVPSSSLGTQTYICNVNHKPSNTKVDKKVEPKSCDKTHTCPPCPAPELRRGPSVFLFPPKPKDTLMISRTPEVTCVVVDVSHEDPEVKFNWYVDGVEVHNAKTKPREEQYNSTYRVVSVLTVLHQDWLNGKEYKCKVSNKGLPSSIEKTISKAKGQPREPQVYTLPPSREEMTKNQVSLTCLVKGFYPSDIAVEWESNGQPENNYKTTPPVLDSDGSFFLYSKLTVDKSRWQQGNVFSCSVMHEALHNHYTQKSLSLSP light: QIVLTQSPATLSLSPGERATLSCTASSSVSSSYLHWYQQKPGKAPKLWIYSTSNLASGVPSRFSGSGSGTDYTLTISSLQPEDFATYYCHQYYRLHPITFGQGTKLEIKRTVAAPSVFIFPPSDEQLKSGTASVVCLLNNFYPREAKVQWKVDNALQSGNSQESVTEQDSKDCTYSLSSTLTLSKADYEKHKVYACEVTHQGLSSPVTKSFNRGEC | 4.7 | 0.0031 | 261000 | 5.1 | 227000 |  | 
IPN92H0281/IPN93L0024-SG136 (antibody, human IgG1, kappa, name in Kabat numbering, Substitutions are numbered by Kabat) heavy: EVMLVESGGGLVKPGGSLRLSCAASGFTFSNYAMSWVRQAPGKGLEWVATISSGGSKTYELDSVDERFTISRDNSKDTLYLQMNSLRAEDTALYYCARLFTKHAMDYWGQGTLVTVSSASTKGPSVFPLAPSSKSTSGGTAALGCLVKDYFPEPVTVSWNSGALTSGVHTFPAVLQSSGLYSLSSVVTVPSSSLGTQTYICNVNHKPSNTKVDKKVEPKSCDKTHTCPPCPAPELRRGPSVFLFPPKPKDTLMISRTPEVTCVVVDVSHEDPEVKFNWYVDGVEVHNAKTKPREEQYNSTYRVVSVLTVLHQDWLNGKEYKCKVSNKGLPSSIEKTISKAKGQPREPQVYTLPPSREEMTKNQVSLTCLVKGFYPSDIAVEWESNGQPENNYKTTPPVLDSDGSFFLYSKLTVDKSRWQQGNVFSCSVMHEALHNHYTQKSLSLSP light: QIVLTQSPATLSLSPGERATLSCTASSSVSSSYLHWYQQKPGKAPKLWIYSTSNLASGVPSRFSGSGSGTDYTLTISSLQPEDFATYYCHQYYRLHPITFGQGTKLEIKRTVAAPSVFIFPPSDEQLKSGTASVVCLLNNFYPREAKVQWKVDNALQSGNSQESVTEQDSKDCTYSLSSTLTLSKADYEKHKVYACEVTHQGLSSPVTKSFNRGEC | 60.9 | 0.0267 | 217000 | 38.2 | 319000 | 123 | 2.02
IPN92H0038/IPN93L0024-SG136 (antibody, human IgG1, kappa, name in Kabat numbering, Substitutions are numbered by Kabat) heavy: EVMLVESGGGLVKPGGSLRLSCAASGFTFSNYAMSWVRQAPGKGLEWVATISSGGSHTYYLDSVKHRFTISRDNSKDTLYLQMNSLRAEDTALYYCARLFTGHAMDYWGQGTLVTVSSASTKGPSVFPLAPSSKSTSGGTAALGCLVKDYFPEPVTVSWNSGALTSGVHTFPAVLQSSGLYSLSSVVTVPSSSLGTQTYICNVNHKPSNTKVDKKVEPKSCDKTHTCPPCPAPELRRGPSVFLFPPKPKDTLMISRTPEVTCVVVDVSHEDPEVKFNWYVDGVEVHNAKTKPREEQYNSTYRVVSVLTVLHQDWLNGKEYKCKVSNKGLPSSIEKTISKAKGQPREPQVYTLPPSREEMTKNQVSLTCLVKGFYPSDIAVEWESNGQPENNYKTTPPVLDSDGSFFLYSKLTVDKSRWQQGNVFSCSVMHEALHNHYTQKSLSLSP light: QIVLTQSPATLSLSPGERATLSCTASSSVSSSYLHWYQQKPGKAPKLWIYSTSNLASGVPSRFSGSGSGTDYTLTISSLQPEDFATYYCHQYYRLHPITFGQGTKLEIKRTVAAPSVFIFPPSDEQLKSGTASVVCLLNNFYPREAKVQWKVDNALQSGNSQESVTEQDSKDCTYSLSSTLTLSKADYEKHKVYACEVTHQGLSSPVTKSFNRGEC | 8.9 | 0.00309 | 289000 | 7.7 | 384000 | 10.7 | 1.2
